Measured values: US20030108554A1 (published 2003)

Experiments:
Experiment in all cases: yeast two-hybrid
[1] = target: T1, GIP130c with deletion of the N terminal 240-residues (human, UniProt Q4L180 241-1128)
T1 sequence: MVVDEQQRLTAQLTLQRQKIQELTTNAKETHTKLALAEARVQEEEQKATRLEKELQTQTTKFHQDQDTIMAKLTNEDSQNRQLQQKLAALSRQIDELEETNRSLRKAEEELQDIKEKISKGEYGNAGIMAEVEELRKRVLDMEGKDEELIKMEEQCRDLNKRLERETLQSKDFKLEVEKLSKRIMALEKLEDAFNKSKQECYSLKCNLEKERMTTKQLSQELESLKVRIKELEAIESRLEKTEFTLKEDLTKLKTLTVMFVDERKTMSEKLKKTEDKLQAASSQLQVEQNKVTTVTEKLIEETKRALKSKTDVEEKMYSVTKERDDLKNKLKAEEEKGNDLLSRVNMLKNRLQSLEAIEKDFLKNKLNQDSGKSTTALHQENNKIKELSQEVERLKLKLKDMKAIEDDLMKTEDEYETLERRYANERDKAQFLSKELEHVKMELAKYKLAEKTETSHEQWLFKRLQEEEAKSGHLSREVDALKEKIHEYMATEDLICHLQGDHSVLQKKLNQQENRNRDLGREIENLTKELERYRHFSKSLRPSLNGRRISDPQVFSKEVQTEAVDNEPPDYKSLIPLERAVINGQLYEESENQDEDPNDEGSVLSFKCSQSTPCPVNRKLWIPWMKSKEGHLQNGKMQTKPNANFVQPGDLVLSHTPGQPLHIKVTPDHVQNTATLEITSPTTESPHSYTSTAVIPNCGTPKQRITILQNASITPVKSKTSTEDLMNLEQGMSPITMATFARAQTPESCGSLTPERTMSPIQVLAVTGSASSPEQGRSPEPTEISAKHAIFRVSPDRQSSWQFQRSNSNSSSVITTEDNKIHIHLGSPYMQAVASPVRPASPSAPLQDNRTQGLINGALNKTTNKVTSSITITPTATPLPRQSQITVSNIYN

DOC1-related protein = target: T2, DOC1-related protein (human, UniProt Q4L180 241-1128)
T2 sequence: T1 sequence

pol κ = target: T3, pol κ (UniProt Q9UBT6 1-870)
T3 construct: Tested in yeast two-hybrid (GAL4 domain fusion); also called primary protein product of the POLK
T3 sequence (looked up): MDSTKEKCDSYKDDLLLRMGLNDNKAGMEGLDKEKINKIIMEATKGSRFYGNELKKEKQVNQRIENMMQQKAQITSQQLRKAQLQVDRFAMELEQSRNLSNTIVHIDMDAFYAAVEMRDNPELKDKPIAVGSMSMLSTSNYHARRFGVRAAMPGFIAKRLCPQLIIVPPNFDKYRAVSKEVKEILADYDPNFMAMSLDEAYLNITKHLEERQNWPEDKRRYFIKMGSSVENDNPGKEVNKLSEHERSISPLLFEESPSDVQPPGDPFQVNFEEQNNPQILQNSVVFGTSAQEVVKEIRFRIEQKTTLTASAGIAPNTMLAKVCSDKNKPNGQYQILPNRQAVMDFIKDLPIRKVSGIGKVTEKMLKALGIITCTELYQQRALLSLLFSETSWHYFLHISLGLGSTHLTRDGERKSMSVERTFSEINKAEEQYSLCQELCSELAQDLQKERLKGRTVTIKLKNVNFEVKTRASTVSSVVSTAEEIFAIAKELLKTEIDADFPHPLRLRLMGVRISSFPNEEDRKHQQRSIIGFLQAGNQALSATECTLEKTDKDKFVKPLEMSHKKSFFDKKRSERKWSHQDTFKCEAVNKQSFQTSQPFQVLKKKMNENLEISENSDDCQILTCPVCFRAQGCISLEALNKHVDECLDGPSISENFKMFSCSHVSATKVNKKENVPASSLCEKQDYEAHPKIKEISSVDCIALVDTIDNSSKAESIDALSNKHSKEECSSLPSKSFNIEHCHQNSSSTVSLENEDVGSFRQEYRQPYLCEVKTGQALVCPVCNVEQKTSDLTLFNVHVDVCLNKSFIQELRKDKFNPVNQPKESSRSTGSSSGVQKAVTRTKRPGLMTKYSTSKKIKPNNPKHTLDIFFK

[2] = target: T4, GIP130b with deletion of the N terminal 240-residues (human, UniProt Q4L180 241-1128)
T4 sequence: T1 sequence

binding result [1]: no binding
binding result (DOC1-related protein): no binding
binding result (pol κ): no binding
binding result [2]: no binding
B1: Goodpasture antigen binding protein (GPBP) (enzyme, UniProt Q9Y5P4 1-624, looked up)
chain: MSDNQSWNSSGSEEDPETESGPPVERCGVLSKWTNYIHGWQDRWVVLKNNALSYYKSEDETEYGCRGSICLSKAVITPHDFDECRFDISVNDSVWYLRAQDPDHRQQWIDAIEQHKTESGYGSESSLRRHGSMVSLVSGASGYSATSTSSFKKGHSLREKLAEMETFRDILCRQVDTLQKYFDACADAVSKDELQRDKVVEDDEDDFPTTRSDGDFLHSTNGNKEKLFPHVTPKGINGIDFKGEAITFKATTAGILATLSHCIELMVKREDSWQKRLDKETEKKRRTEEAYKNAMTELKKKSHFGGPDYEEGPNSLINEEEFFDAVEAALDRQDKIEEQSQSEKVRLHWPTSLPSGDAFSSVGTHRFVQKPYSRSSSMSSIDLVSASDDVHRFSSQVEEMVQNHMTYSLQDVGGDANWQLVVEEGEMKVYRREVEENGIVLDPLKATHAVKGVTGHEVCNYFWNVDVRNDWETTIENFHVVETLADNAIIIYQTHKRVWPASQRDVLYLSVIRKIPALTENDPETWIVCNFSVDHDSAPLNNRCVRAKINVAMICQTLVSPPEGNQEISRDNILCKITYVANVNPGGWAPASVLRAVAKREYPKFLKRFTSYVQEKTAGKPILF
notes: Protein kinase; Fusion parts are not written as pieces
